# Entries after “also recorded” stand apart in the source; their conditions may differ.
# B1: Tfr2-ECD: Recombinant full-length extracellular domain (aa 103-798) of murine Tfr2, His-tagged, expressed in Sf9 insect cells (protein, listed as Mus musculus)
# chain: RGSCQACGDSVLVVDEDVNPEDSGRTTLYWSDLQAMFLRFLGEGRMEDTIRLTSLRERVAGSARMATLVQDILDKLSRQKLDHVWTDTHYVGLQFPDPAHANTLHWVDADGSVQEQLPLEDPEVYCPYSATGNATGKLVYAHYGRSEDLQDLKAKGVELAGSLLLVRVGITSFAQKVAVAQDFGAQGVLIYPDPSDFSQDPHKPGLSSHQAVYGHVHLGTGDPYTPGFPSFNQTQFPPVESSGLPSIPAQPISADIADQLLRKLTGPVAPQEWKGHLSGSPYRLGPGPDLRLVVNNHRVSTPISNIFACIEGFAEPDHYVVIGAQRDAWGPGAAKSAVGTAILLELVRTFSSMVSNGFRPRRSLLFISWDGGDFGSVGATEWLEGYLSVLHLKAVVYVSLDNSVLGDGKFHAKTSPLLVSLIENILKQVDSPNHSGQTLYEQVALTHPSWDAEVIQPLPMDSSAYSFTAFAGVPAVEFSFMEDDRVYPFLHTKEDTYENLHKMLRGRLPAVVQAVAQLAGQLLIRLSHDHLLPLDFGRYGDVVLRHIGNLNEFSGDLKERGLTLQWVYSARGDYIRAAEKLRKEIYSSERNDERLMRMYNVRIMRVEFYFLSQYVSPADSPFRHIFLGQGDHTLGALVDHLRMLRADGSGAASSRLTAGLGFQESRFRRQLALLTWTLQGAANALSGDVWNIDNNF
# modifications: His tag
# notes: Recombinant full-length extracellular domain (aa 103-798) of murine Tfr2, His-tagged, expressed in Sf9 insect cells
# What was measured:
# [1] = tested on: trauma-induced heterotopic ossification; assay: Trauma-potentiated (drop-weight) heterotopic ossification model; type: in vivo; settings: WT mice; after three weeks; Tfr2-ECD single dose, palovarotene or ibuprofen daily
# Procedure: (§1) For systemic Tfr2-ECD treatment, WT mice were treated every other day with Tfr2-ECD intraperitoneally for two weeks. Mice received 250 μg Tfr2-ECD (10 mg/kg BW) per injection for the first 10 days after BMP-2/matrigel injection into the muscle and 125 μg per injection (5 mg/kg BW) for the remaining time. This experiment was performed once with 8-10 mice per group. Drop-weight HO: This experiment was performed according to Liu et al. with minor modifications^65. Female 10-12-week-old WT mice were anesthetized and placed on a ridge of a plastic container over which the right leg was bent so the femur was lying horizontally. Mice received an injection of 1 μg BMP-2 mixed in 50 μl matrigel. Afterwards, a stainless-steel ball of 16 g (16 mm diameter) was dropped from a distance of 80 cm height onto the quadriceps muscle. Mice either received a single dose of 1 μg Tfr2-ECD, which was co-injected with the BMP-2/matrigel mixture, or palovarotene (Hycultec), which was administered daily by oral gavage. Palovarotene was dissolved in DMSO and diluted 1:4 with corn oil. Mice received palovarotene at a dose of 100 μg/mouse for the first five days and 50 μg/mouse for the remainder of the experiment (days 621). One group of mice received ibuprofen via the drinking water at a dose of 100 mg/ml which was changed every other day^66. […]
# BMP-2 = target: T1, BMP-2 (Homo sapiens, UniProt P12643); assay: BMP-2 competitive ELISA; type: binding; settings: 1.5 ng/ml BMP-2 with increasing concentrations of protein
# T1 sequence (P12643 283-396): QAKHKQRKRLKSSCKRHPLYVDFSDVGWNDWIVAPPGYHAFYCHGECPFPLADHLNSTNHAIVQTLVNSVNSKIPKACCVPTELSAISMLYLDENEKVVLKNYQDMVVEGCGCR
# Procedure: In order to carry out the BMP-2-competitive ELISA, the Duo Set BMP-2 ELISA kit by R&D Systems is used.
# The Duo Set BMP-2 ELISA kit from R&D Systems was used. […] After 1 h incubation at RT and extensive washing, the detection antibody was added according to the manufacturer's protocol and the amount of BMP-2 was quantified. This experiment was performed at least three independent times.
# [2] = tested on: BMP-2-induced heterotopic ossification; assay: BMP-2-induced heterotopic ossification (HO) mouse model; type: in vivo, mice; settings: for Heterotopic ossification (bone volume by μCT): after two weeks
# Procedure: Male and female C57BL/6 mice are used for the HO model. The HO is triggered by injecting BMP-2 into the muscle (Wosczyna et al. 2012).
# All the mice are fed with standard feed and water ad libitum and are kept in groups of five mice per cage. The mice are exposed to a 12-hour light/dark cycle and air cooling to 23° C. (no special pathogen-free room). Enrichment is provided in the form of cardboard houses and bedding material. The mice are randomly divided into the different treatment groups and the assays are subsequently carried out as blind experiments.
# The HO is examined by means of treatment using 2.5 μl of a 1 mg/ml recombinant BMP-2 solution (Thermo Fisher Scientific) or 2.5 μl of a 1 mg/ml Tfr2-ECD mixed with 47.5 μl Matrigel (BD Bioscience) at 0° C. For combination treatment, 2.5 of a 1 mg/ml recombinant BMP-2 solution is mixed with 2.5 μl of a 1 mg/ml Tfr2-ECD and 45 μl Matrigel. The Matrigel mixtures are injected into the musculus tibialis anterior of 10-week-old female wild-type mice. The legs are examined after two weeks.
# The bone microarchitecture is analyzed using vivaCT40 (Scanco Medical, Switzerland). The entire lower leg bones are measured at a resolution of 10.5 μm using X-rays of 70 kVp, […] and at an integration time of 200 s. Predefined scripts from Scanco are used to analyze the bone (#1).
# Heterotopic ossification (HO): The HO model was performed according to Wosczyna et al^32. Briefly, 2.5 μl of 1 mg/ml recombinant BMP-2 (Thermo Fisher) or 2.5 μl of 1 mg/ml Tfr2-ECD were mixed with 47.5 μl matrigel (BD Bioscience) on ice. For the local combination treatment, 2.5 μl BMP-2 were mixed with 2.5 μl Tfr2-ECD and 45 μl matrigel. The matrigel-mixtures were injected into the midbelly of the tibialis anterior muscle of 10-week-old female WT and Tfr2-deficient mice. Some mice were treated daily with palovarotene through oral gavage using a previously published protocol^58. Palovarotene (Hycultec) was dissolved in DMSO and diluted 1:4 with corn oil. Mice received palovarotene at a dose of 100 μg/mouse for the first five days and 50 μg/mouse for the remainder of the experiment (days 6-14). Two weeks after BMP-2 injection, the legs were harvested for analysis. This experiment was performed three times with 3-11 mice per group. To analyze the chondrogenic phase of HO, we performed an experiment as described above that was terminated on day 8. This was performed once with 4-6 mice per group.
# as §1, with “oil.” for “oil. Mice received palovarotene at a dose of 100 μg/mouse for the first five days and 50 μg/mouse for the remainder of the experiment (days 621). One group of mice received ibuprofen via the drinking water at a dose of 100 mg/ml which was changed every other day^66.”
# [3] = WT mice, day 8, systemic treatment, Safranin O staining
molecule,measurement,setting,value
B1,"New bone formation in the muscle (trauma-induced HO, μCT)",[1],inhibited new bone formation in the muscle comparable to palovarotene
same,BMP-2 binding: signal of the BMP-2 detection antibody,BMP-2,verified
same,BMP-2 binding: signal of the BMP-2 detection antibody,BMP-2; listed as protein according to the invention,signal of the BMP-2 detection antibody reduced
same,Heterotopic ossification (bone volume by μCT),"[2]; Tfr2-/- mice, co-application of Tfr2-ECD with BMP-2",significantly inhibited
same,Number of chondrocytes (chondrogenic phase of HO),[2]; [3],suppressed
same,Production of cartilage (chondrogenic phase of HO),[2]; [3],suppressed
same,Heterotopic ossification (bone volume by μCT),"[2]; WT mice, local Tfr2-ECD co-injected with BMP-2 into the muscle",significant reduction in bone formation; also recorded: completely abrogated; also recorded: reduced; also recorded: inhibited
same,Heterotopic ossification (bone volume by μCT),"[2]; WT mice, systemic treatment, i.p. injections every other day",reduced; also recorded: inhibited

# Source: US20240199755A1, “ANTAGONISTS AND AGONISTS OF THE TRANSFERRIN RECEPTOR-2 FOR USE IN THE TREATMENT OF DISEASES OF THE BONE” (Kymab Limited, priority 2018, published 2024)
